Test [1] has as its target dynactin (bovine (purified from bovine brain)).
For test [2], the target named is human cytoplasmic dynein (recombinant complex of DHC, DIC, DLIC, Tctex, Robl and LC8) (human) (UniProt Q14204).

B1: full-length Drosophila Bicaudal D F684I mutant (Dm BicD/F684I) (natural protein)
chain: MSSASNNGPSADQSVQDLQMEVERLTRELDQVSSASAQSAQYGLSLLEEKSALQQKCEELETLYDNTRHELDITQEALTKFQTSQKVTNKTGIEQEDALLNESAARETSLNLQIFDLENELKQLRHELERVRNERDRMLQENSDFGRDKSDSEADRLRLKSELKDLKFRETRMLSEYSELEEENISLQKQVSSLRSSQVEFEGAKHEIRRLTEEVELLNQQVDELANLKKIAEKQMEEALETLQGEREAKYALKKELDGHLNRESMYHISNLAYSIRSNMEDNASNNSDGEEENLALKRLEADLSTELKSPDGTKCDLFSEIHLNELKKLEKQLESMESEKTHLTANLREAQTSLDKSQNELQNFMSRLALLAAHVDALVQLKKQIDVKEQGKEGGQKKDELEQQLRALISQYANWFTLSAKEIDGLKTDIAELQKGLNYTDATTTLRNEVTNLKNKLLATEQKSLDLQSDVQTLTHISQNAGQSLGSARSTLVALSDDLAQLYHLVCTVNGETPTRVLLDHKTDDMSFENDSLTAIQSQFKSDVFIAKPQIVEDLQGLADSVEIKKYVDTVSDQIKYLKTAVEHTIDMNKHKIRSEGGDALEKVNTEEMEELQEQIVKLKSLLSVKREQIGTLRNVLKSNKQTAEVALTNLKSKYENEKIIVSDTMSKLRNELRLLKEDAATISSLRAMFAARCEEYVTQVDDLNRQLEAAEEEKKTLNQLLRLAVQQKLALTQRLEEMEMDREMRHVRRPMPAQRGTSGKSSFSTRPSSRNPASSNANPF
In the case of B1, in test [1], the processive run length of DDB^F684I on microtubules, single molecule TIRF is 3.3 µm and the speed of DDB^F684I on microtubules, single molecule TIRF was found to be 0.43 µm/s. In addition, in test [2], the processive run length of DDB^F684I on microtubules, single molecule TIRF was found to be 3.3 µm and the speed of DDB^F684I on microtubules, single molecule TIRF amounted to 0.43 µm/s.
